Experimental data as given in patent publication US6407207B1, “Cloned and expressed human bradykinin BK-2 receptor” (Merck & Co., Inc., priority 1992, dated 2002).
Where a SMILES comes first, the peptide text is derived from it. Where no end group is shown, it is not given here. [ ]: non-standard residue; d: D form. Hyp = O=C(O)[C@@H]1C[C@@H](O)CN1; 2Thi = N[C@@H](Cc1cccs1)C(=O)O

What was measured:
[1] = target: T1, human BK-2 receptor (Homo sapiens, UniProt P30411); assay: Competition binding against 100 pM [3H]BK, membranes of COS-7 cells expressing the cloned receptor; conditions: for IC50: competition with [3H]BK, read-out: IC50, displacement of [3H]BK binding; for Inhibition of BK binding: at a concentration of 10 uM
T1 construct: permitted the construction of a cDNA clone encoding a full length BK-2 receptor from the cleavage fragments of the two clones; expressed in transfected cells; host or cells: COS-7 cells, vector pcDNA I-Neo, membranes
T1 sequence (P30411 1-364 isoform P30411-2): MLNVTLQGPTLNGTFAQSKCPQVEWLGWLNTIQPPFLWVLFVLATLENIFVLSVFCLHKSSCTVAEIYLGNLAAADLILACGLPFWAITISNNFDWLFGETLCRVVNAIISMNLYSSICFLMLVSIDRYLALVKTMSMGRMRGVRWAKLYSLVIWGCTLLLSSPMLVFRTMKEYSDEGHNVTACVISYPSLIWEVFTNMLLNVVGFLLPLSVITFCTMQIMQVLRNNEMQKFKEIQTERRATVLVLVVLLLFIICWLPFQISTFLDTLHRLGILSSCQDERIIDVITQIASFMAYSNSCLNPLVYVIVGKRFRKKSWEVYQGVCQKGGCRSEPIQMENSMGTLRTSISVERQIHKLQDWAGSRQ
Experimental: (§1) Cells are then harvested after 72 hours and the membranes containing the expressed receptor protein are prepared by scraping the cells in phosphate buffered saline solution and centrifuging for ten minutes at 500×g. The cell pellet is then resuspended and homogenized with a Polytron in 20 mM N-tris(hydroxymethyl)methyl-2-aminoethane sulfonic acid (TES, pH 6.8 at room temperature) buffer containing 1 mM 1,10 phenanthroline. The homogenate is then centrifuged for ten minutes at […]. The final membrane pellet is resuspended in assay buffer (TES plus 0.1% protease free bovine serum albumin, 5 uM MK-422 (enalaprilat; Gross et al., J. Pharmacol. and Exper. Ther. 216, 552-557 (1981)) and 140 ug/ml bacitracin using a motor-driven teflon-glass tissue homogenizer. Protein determination are performed by the method of Bradford using bovine IgG as the standard. See Bradford, M. A. Anal. Biochem. 72, 248-254 (1976).
(§2) Binding assays are then performed to determine receptor antagonist or agonist interaction. The assays utilized in the instant invention follow the method of Manning et al., J. Pharmacol. Exp. Ther., 237, 504-512 (1986). […] (BRANDEL, Gaithersburg, Md.). The tubes are then rinsed two times with 4 ml ice-cold 10 uM TES and the filter bound radioactivity is quantitated by liquid scintillation counting. […] The competition and saturation experiments are analyzed using the EBDA program of McPherson. See McPherson, G. A. J Pharmacol. Methods 14, 213-218 (1985).
as §1, with “Cells were” for “Cells are”, “protein were” for “protein are”, “pellet was” for “pellet is”, “homogenate was” for “homogenate is”, “al., 1981)” for “al., J. Pharmacol. and Exper. Ther. 216, 552-557 (1981))”, “determination was” for “determination are”
as §2, with “assays were” for “assays are”, “tubes were” for “tubes are then”, “[…]” for “uM TES”, “radioactivity was” for “radioactivity is”, “experiments were” for “experiments are”

[2] = target: T2, B2 receptors (Homo sapiens, UniProt P30411); conditions: cited from earlier work
T2 sequence (P30411 1-391): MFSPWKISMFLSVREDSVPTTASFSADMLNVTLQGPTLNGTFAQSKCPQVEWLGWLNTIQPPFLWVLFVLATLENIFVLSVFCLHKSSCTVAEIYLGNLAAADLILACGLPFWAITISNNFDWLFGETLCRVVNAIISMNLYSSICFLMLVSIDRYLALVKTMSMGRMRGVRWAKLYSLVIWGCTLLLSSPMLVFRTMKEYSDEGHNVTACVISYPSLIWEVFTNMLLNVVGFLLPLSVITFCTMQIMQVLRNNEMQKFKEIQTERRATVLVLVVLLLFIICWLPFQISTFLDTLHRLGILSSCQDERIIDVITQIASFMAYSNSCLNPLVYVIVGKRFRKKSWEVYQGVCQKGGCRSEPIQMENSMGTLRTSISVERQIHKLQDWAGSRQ

[3] = test system: rat vas deferens; conditions: cited from earlier work
[4] = target: T3, human bradykinin BK-2 receptor protein (human), P30411; assay: displacement of 100 pM [3H]BK, cloned human BK-2 receptor in membranes
T3 chain: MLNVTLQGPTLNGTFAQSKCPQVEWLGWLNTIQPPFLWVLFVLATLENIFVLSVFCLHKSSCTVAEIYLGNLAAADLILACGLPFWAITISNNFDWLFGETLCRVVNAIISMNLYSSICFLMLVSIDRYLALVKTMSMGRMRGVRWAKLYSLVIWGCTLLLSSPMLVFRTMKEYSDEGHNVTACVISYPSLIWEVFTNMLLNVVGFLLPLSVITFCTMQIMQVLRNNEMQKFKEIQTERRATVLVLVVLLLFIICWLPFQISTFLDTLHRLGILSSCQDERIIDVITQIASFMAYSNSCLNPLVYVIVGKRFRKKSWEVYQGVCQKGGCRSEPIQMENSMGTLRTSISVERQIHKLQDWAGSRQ

[5] = target: T4, human bradykinin BK-2 receptor protein (human, UniProt P30411 28-391); assay: competition binding with 100 pM [3H]BK, cloned human BK-2 receptor in membranes
T4 construct: also called human BK-2 bradykinin receptor; cloned BK receptor
T4 sequence: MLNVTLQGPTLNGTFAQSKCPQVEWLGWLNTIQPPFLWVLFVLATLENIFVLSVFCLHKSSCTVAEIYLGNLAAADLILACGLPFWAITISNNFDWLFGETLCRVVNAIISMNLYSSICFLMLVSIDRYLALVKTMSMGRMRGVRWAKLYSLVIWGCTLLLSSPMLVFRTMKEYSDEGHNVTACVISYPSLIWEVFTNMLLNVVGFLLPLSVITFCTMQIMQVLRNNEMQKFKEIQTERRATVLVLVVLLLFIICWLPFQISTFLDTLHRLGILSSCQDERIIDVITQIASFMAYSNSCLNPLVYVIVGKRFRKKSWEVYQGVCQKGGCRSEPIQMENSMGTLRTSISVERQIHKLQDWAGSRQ
Experimental: as §2, with “*J.” for “J.”, “Ther.*,” for “Ther.,”, “504–512” for “504-512”, “*J” for “J”, “Methods*” for “Methods”, “213–218” for “213-218”
(§3) Binding assays were then performed to determine receptor antagonist or agonist interaction. The assays utilized in the instant invention follow the method of Manning et al., *J. Pharmacol. Exp. Ther.*, 237, 504–512 (1986). […] (BRANDEL, Gaithersburg, Md.). The tubes were rinsed two times with 4 ml ice-cold 10 uM TEX and the filter bound radioactivity was quantitated by liquid scintillation counting. […] The competition and saturation experiments were analyzed using the EBDA program of McPherson. See McPherson, G. A. *J Pharmacol. Methods* 14, 213–218 (1985).

[6] = target: T4, human bradykinin BK-2 receptor protein; assay: competition binding with 100 pM [3H]BK, membranes of COS-7 cells expressing the receptor
Experimental: as §3, with “assays are” for “assays were”, “tubes are then” for “tubes were”, “[…]” for “uM TEX”, “radioactivity is” for “radioactivity was”, “experiments are” for “experiments were”
as §3

N=C(N)NCCC[C@@H](N)C(=O)N[C@@H](CCCNC(=N)N)C(=O)N1C[C@H](O)C[C@H]1C(=O)N1C[C@H](O)C[C@H]1C(=O)NCC(=O)N[C@@H](Cc1cccs1)C(=O)N[C@@H](CO)C(=O)N[C@H](Cc1ccccc1)C(=O)N[C@@H](Cc1cccs1)C(=O)N[C@@H](CCCNC(=N)N)C(=O)O [D-Arg^0-[Hyp^2,3,-Thi^5,8D-Phe^7]BK] (H-[dR]R[Hyp][Hyp]G[2Thi]S[dF][2Thi]R-OH; N-terminus and C-terminus assumed)
IC50 [1]: 27 nM

angiotensin II (DRVYIHPF) [peptide]
Competition for BK binding [1]: No competition

Des-Arg^9BK (RPPGFSPF) [BK-1 agonist, BK metabolite]
Inhibition of BK binding [1]: 18%
Activity at B2 receptors [2]: inactive
Pre- or postsynaptic BK like responses [3]: inactive

met-lys-BK
Specificity of binding of BK analogues (rank order) ([1]; competition binding, data not shown): BK>lys-BK>met-lys-BK

angiotensin I (DRVYIHPFHL) [peptide]
Competition for BK binding [1]: No competition

des-Arg^9-[Leu^8]-BK [Des-Arg^9, LeuBK]
Inhibition of BK binding [1]: 11%
Pre- or postsynaptic BK like responses [3]: inactive
Antagonism of BK responses in the vas deferens ([3]; incubation at high concentrations): failed to antagonize

CC[C@H](C)[C@@H]1NC(=O)[C@H](Cc2ccc(O)cc2)NC(=O)[C@@H](N)CSSC[C@@H](C(=O)N2CCC[C@H]2C(=O)N[C@@H](CC(C)C)C(=O)NCC(N)=O)NC(=O)[C@H](CC(N)=O)NC(=O)[C@H](CCC(N)=O)NC1=O [oxytocin]
Competition for BK binding [1]: No competition

N=C(N)NCCC[C@H](NC(=O)[C@H](Cc1cccs1)NC(=O)[C@@H](Cc1ccccc1)NC(=O)[C@H](CO)NC(=O)[C@H](Cc1cccs1)NC(=O)CNC(=O)[C@@H]1CCCN1C(=O)[C@@H]1CCCN1C(=O)[C@@H](N)CCCNC(=N)N)C(=O)O [[Thi^5,8,D-Phe^7]BK] (H-RPPG[2Thi]S[dF][2Thi]R-OH; N-terminus and C-terminus assumed)
IC50 [1]: 180 nM

CC[C@H](C)[C@H](NC(=O)[C@H](CC(=O)O)NC(=O)[C@H](CC(C)C)NC(=O)[C@H](Cc1c[nH]cn1)NC(=O)[C@@H]1CSSC[C@H](N)C(=O)N[C@@H](CO)C(=O)N[C@H]2CSSC[C@H](NC(=O)[C@H](CCC(=O)O)NC(=O)[C@H](CCCCN)NC(=O)[C@H](CC(=O)O)NC(=O)[C@H](CCSC)NC(=O)[C@H](CC(C)C)NC(=O)[C@H](CO)NC(=O)[C@H](CO)NC2=O)C(=O)N[C@@H](C(C)C)C(=O)N[C@@H](Cc2ccc(O)cc2)C(=O)N[C@@H](Cc2ccccc2)C(=O)N1)C(=O)N[C@H](C(=O)N[C@@H](Cc1c[nH]c2ccccc12)C(=O)O)[C@@H](C)CC [endothelin]
Competition for BK binding [1]: No competition

[dR]R[Hyp][Hyp]G[2Thi]S[dF][2Thi]R [D-Arg^0-[Hyp^2,3,-Thi^5,8D-Phe^7]BK]
IC50 [4]: 27 nM

B1: Hoe 140, D-Arg^0-[Hyp^3,Thi^5,D-Tic^7,Oic^8]BK (peptide)
peptide: RRPPGFSPFR
modifications: numbered on bradykinin: D-Arg at 0; Hyp at 3; Thi at 5; D-Tic at 7; Oic at 8
notes: Synthetic BK-2 antagonist with non-natural residues
IC50 [5]: 0.065 nM

B2: met-lys-BK (peptide)
peptide: MKRPPGFSPFR
notes: It is built from its name (Met-Lys + bradykinin)
binding result [6]: binds

CYIQNCPLG (peptide, UniProt P01178 20-28, looked up) [oxytocin]
binding result [6]: no binding
